Assay [1] has as its target T1, LSR β (Homo sapiens, UniProt Q86X29).
T1 construct: The full-length LSR α, α′, and β clones were reconstructed in pTracer-CMV2 vector; expressed in transfected cells; host or cells: CHO-K1, transient (Fugene), pTracer-CMV2
T1 sequence (Q86X29 1-581 isoform Q86X29-5): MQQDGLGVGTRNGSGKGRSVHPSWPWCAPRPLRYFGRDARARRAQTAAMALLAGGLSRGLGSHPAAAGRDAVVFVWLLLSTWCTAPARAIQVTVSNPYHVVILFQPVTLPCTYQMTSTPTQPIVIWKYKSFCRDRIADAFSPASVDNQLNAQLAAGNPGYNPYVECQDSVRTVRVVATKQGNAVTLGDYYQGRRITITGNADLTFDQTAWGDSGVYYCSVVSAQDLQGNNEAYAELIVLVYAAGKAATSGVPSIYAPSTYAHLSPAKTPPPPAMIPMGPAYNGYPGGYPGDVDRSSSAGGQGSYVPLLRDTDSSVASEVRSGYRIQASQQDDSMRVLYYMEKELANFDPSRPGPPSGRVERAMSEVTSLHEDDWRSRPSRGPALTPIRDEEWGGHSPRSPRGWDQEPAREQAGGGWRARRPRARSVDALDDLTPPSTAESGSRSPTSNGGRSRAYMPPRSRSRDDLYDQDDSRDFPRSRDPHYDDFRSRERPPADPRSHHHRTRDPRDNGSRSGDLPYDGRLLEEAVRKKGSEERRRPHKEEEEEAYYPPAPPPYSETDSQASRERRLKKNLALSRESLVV
Description: 125I-leptin binding in CHO-K1 cells transiently transfected with LSR β. The format is cell-based. The following applies: transient transfection with LSR β plasmid; 10 ng/mL 125I-leptin. Here is the method: FIGS. 3A, 3B, 3C, and 3D show the effect of LSR subunit transfection on leptin binding and degradation in CHO-K1 cells. For FIG. 3A, CHO-K1 cells were transfected with increasing concentrations of the α, (□), α′ (▪) or β (◯) LSR plasmid, or vector alone (●) using Fugene transfection reagent. After 48 h, the cells were washed once in PBS and incubated at 37° C. for 2 h with 10 ng/mL of ^125I-leptin in DMEM containing 0.2% (w/v) BSA, 2 mM CaCl2 and 5 mM HEPES, pH 7.4 (Buffer A). The monolayers were washed and lysed with 0.1 N NaOH containing 0.24 mM EDTA, and the lysates were counted. The results are shown as the amount of cell-associated ^125I-leptin. For FIG. 3B, lysates were prepared from CHO-K1 wild type, stable transfectants of vector or LSR α′ subunit, and PLC, and separated on a 10% SDS-polyacrylamide gel under denaturing and reduced conditions. After transfer to nitrocellulose, Western blots were performed using anti-LSR 170 antibody (can also be done with the human equivalent, 93A). […] For FIGS. 3C and 3D, confluent monolayers of stable-transfected cell lines expressing LSR α′ subunit (▪) or vector alone (●) were washed once in PBS and incubated at 37° C. for 2 h with increasing concentrations of ^125I-leptin in Buffer A. The amount of cell-associated (FIG. 3C) and degraded (FIG. 3D) ^125I-leptin was then measured as described herein. […]

In assay [2] the test system is ob/ob mice. Description: Food intake of ob/ob mice under daily subcutaneous injections. The format is in vivo, mouse. The following applies: daily subcutaneous injections of 25 μg over a 12 day period. Here is the method:
A synthetic peptide with a sequence identical to that of mouse leptin between residues 117-138 was obtained and found to stimulate the oleate-induced binding of ^125I-LDL in primary cultures of rat hepatocytes (FIG. 11B, insert). Daily subcutaneous injections of 25 μg of this synthetic leptin peptide to ob/ob mice had no effect on the food intake over a 12 day period (7.6±0.4 g/day in ob/ob receiving saline and 6.7±0.3 g/day in ob/ob receiving peptide; n=4, NS). Daily injections of 25 μg of mouse leptin caused a reduction of food intake to 4.7±0.5 g/day (n=3; p<0.003 versus controls).

The source of these data is patent US7470669B2, “Isolated polypeptide comprising a leptin fragment” (Serono Genetics Institute, S.A., priority 1999, dated 2008).

As for “leptin: plasma protein of 16 kDa produced by adipocytes; recombinant human or mouse leptin, species depends on the experiment”, the “Leptin binding to CHO-K1 cells” value in assay [1] was “remained at levels similar to those seen with the vector alone”. “CSLPQTSGLQKPESLDGVLEAS (listed as Mus musculus) [mouse peptide, mouse leptin fragment residues 117-138, 22-mer]”: the food intake in assay [2] is 6.7 ± 0.3 g/day.
